B1: Protein patched homolog 1 (Homo sapiens), Q13635-1 (parent)
chain: MASAGNAAEPQDRGGGGSGCIGAPGRPAGGGRRRRTGGLRRAAAPDRDYLHRPSYCDAAFALEQISKGKATGRKAPLWLRAKFQRLLFKLGCYIQKNCGKFLVVGLLIFGAFAVGLKAANLETNVEELWVEVGGRVSRELNYTRQKIGEEAMFNPQLMIQTPKEEGANVLTTEALLQHLDSALQASRVHVYMYNRQWKLEHLCYKSGELITETGYMDQIIEYLYPCLIITPLDCFWEGAKLQSGTAYLLGKPPLRWTNFDPLEFLEELKKINYQVDSWEEMLNKAEVGHGYMDRPCLNPADPDCPATAPNKNSTKPLDMALVLNGGCHGLSRKYMHWQEELIVGGTVKNSTGKLVSAHALQTMFQLMTPKQMYEHFKGYEYVSHINWNEDKAAAILEAWQRTYVEVVHQSVAQNSTQKVLSFTTTTLDDILKSFSDVSVIRVASGYLLMLAYACLTMLRWDCSKSQGAVGLAGVLLVALSVAAGLGLCSLIGISFNAATTQVLPFLALGVGVDDVFLLAHAFSETGQNKRIPFEDRTGECLKRTGASVALTSISNVTAFFMAALIPIPALRAFSLQAAVVVVFNFAMVLLIFPAILSMDLYRREDRRLDIFCCFTSPCVSRVIQVEPQAYTDTHDNTRYSPPPPYSSHSFAHETQITMQSTVQLRTEYDPHTHVYYTTAEPRSEISVQPVTVTQDTLSCQSPESTSSTRDLLSQFSDSSLHCLEPPCTKWTLSSFAEKHYAPFLLKPKAKVVVIFLFLGLLGVSLYGTTRVRDGLDLTDIVPRETREYDFIAAQFKYFSFYNMYIVTQKADYPNIQHLLYDLHRSFSNVKYVMLEENKQLPKMWLHYFRDWLQGLQDAFDSDWETGKIMPNNYKNGSDDGVLAYKLLVQTGSRDKPIDISQLTKQRLVDADGIINPSAFYIYLTAWVSNDPVAYAASQANIRPHRPEWVHDKADYMPETRLRIPAAEPIEYAQFPFYLNGLRDTSDFVEAIEKVRTICSNYTSLGLSSYPNGYPFLFWEQYIGLRHWLLLFISVVLACTFLVCAVFLLNPWTAGIIVMVLALMTVELFGMMGLIGIKLSAVPVVILIASVGIGVEFTVHVALAFLTAIGDKNRRAVLALEHMFAPVLDGAVSTLLGVLMLAGSEFDFIVRYFFAVLAILTILGVLNGLVLLPVLLSFFGPYPEVSPANGLNRLPTPSPEPPPSVVRFAMPPGHTHSGSDSSDSEYSSQTTVSGLSEELRHYEAQQGAGGPAHQVIVEATENPVFAHSTVVHPESRHHPPSNPRQQPHLDSGSLPPGRQGQQPRRDPPREGLWPPPYRPRRDAFEISTEGHSGPSNRARWGPRGARSHNPRNPASTAMGSSVPGYCQPITTVTASASVTVAVHPPPVPGPGRNPRGGLCPGYPETDHGLFEDPHVPFHVRCERRDSKVEVIELQDVECEERPRGSSSN

Variants of: B1
Conditions: with shh_human SHH

Effect of a mutation on the interaction, disrupting interaction:
G509V
L282Q
T500F;P504L
D513Y
L282Q;T500F;P504L

— IntAct's records for PubMed 29954986
